From the RNAGym collection of RNA variant scans (doi:10.1073/pnas.2313332121)

B1: TPR t1 (parent)
chain: GACCAAUCUGCCCUCAGAGCUCGAGAACAUCUUCGGAUGCAGAGGAGGCAGGCUUCGGUGGCGCGAUAGCGCCAACGUCCUCAACCUCCAAUGCAUCCCACCACAUGAUGAUGCCUGAAGAGCCUUGGUUUUUUG

Variants of: B1
Test: polymerase ribozyme fitness, log enrichment relative to wild type (log ratio); higher = more active; in vitro selection for triplet polymerase activity
How it was run: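 In triplicate, a single round of in vitro selection was run on each mutant library, PCR-built and transcribed, covering one subunit of a heterodimeric triplet polymerase ribozyme. Frozen incubation at −7 °C followed annealing with a biotinylated primer, partner subunit and triplets, and extended constructs were then gel-excised, streptavidin-captured and taken through RT-PCR. Fitness is the logarithm of genotype enrichment over wild-type enrichment, from inverse-variance-weighted replicate averages of Illumina-sequenced inputs and outputs. […] only genotypes with ≥10 input reads and ≥1 read per output were kept.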

| Variant | polymerase ribozyme fitness (log ratio) |
| --- | --- |
| GACCAAUCUGCCCUCAGUGCUCGAGAACAUCUUCGGAUGCAGAGGAGGCAGGCUUCGGUGGCGCGAUAGCGCCAACGUCCUCAACCUCCAAUGCAUCCCACCACAUGAUGAUGACUGAAGAGCCAUGGUUUUGUG [A18U C114A U125A U133G] | -1.87 |
| GACCAAUCUGCCCUCAGUGCUCGAGAACAUCUUCGGAUGCAGAGGAGGCAGGCUUCGGUGGCGCGAUAGCGCUAACGUCCUCAACCUCCAAUGCAGCCCACCAUAUGAUGAUGCCUGAAGAGCCUUGGUUUUUUG [A18U C73U U96G C104U] | -2.93 |
| GACCAAUCUGCCCUCAGUGCUCGAGAACAUCUUCUGAUGCAGAGGAGGCAGGCUUCGGUGGCGCGAUAGCACCAACGUCCUCAACCUCCAAUGCAUCCCACCACAUGGUGAUGCUUGAAGAGCCUUGGUUUUUUG [A18U G35U G71A A108G C115U] | -6.98 |
| GACCAAUCUGCCCUCAGUGCUCGAGAACAUCUUCGGAUGCAGAGGAGGCAGGCUUCGGUGGCGCGAUAGCGCCAACGUGCUCAACCUCCAAUGCAUCCCACCACAUGAUAAUGCCUGAAGAGCCUUGGUUUUUUG [A18U C79G G110A] | -6 |
| GACCAAUCUGCCCUCAGUGCUCGAGAACAUCUUCGGAUGCAGAGGAGGCAGGCUUCGGUGGCGCGAUAGCGCCAACGUCCUCAACCUACAAUGCAUCCCACCACAUGAUGAUGCCUGAAGAGCCUUGGUUUUUUG [A18U C88A] | -3.06 |
| GACCAAUCUGCCCUCAGUGCUCGAGAACAUCUUCGGAUGCAGAGGAGGCAGGCUUCGGUGGCGCGAUAGCGCCAACGUCCUCAACCUUCAAUGCAUCCCACCACAUGAUGUUGCCUGAAGAGCCUUAGUUUUUUG [A18U C88U A111U G127A] | -5.73 |
| GACCAAUCUGCCCUCAGUGCUCGAGAACAUCUUCGGAUGCAGAGGAGGCAGGCUUCGGUGGCGCGAUAGCGCCAACGUCCUCAAGCUCCAAUGCAUCCCACCACAUGAUGAUCCCUGAAGAGCCUUGGUUUUUUG [A18U C85G G113C] | -5.2 |
| GACCAAUCUGCCCUCAGUGCUCGAGAACAUCUUCGGAUGCAGAGGAGGCAGGCUUCGGUGGCGCGAUAGCGCCAACGUCCUCAAACUCCAAUGCAUCCCACCACAUGAUGAUGCCUGAAGAGCCUUGGUUUUUUG [A18U C85A] | -4.19 |
| GACCAAUCUGCCCUCAGUGCUCGAGAACAUCUUCGGAUGCAAAGGAGGCAGGGUUCGGUGGCGCGAUAGCCCCAACGUCCUCAAUCUCAAAUGCAUCCCACCACAUGAUGAUGCCUGAAGAGCCUUGGUUUUUUG [A18U G42A C53G G71C C85U C89A] | -4.28 |
| GACCAAUCUGCCCUCAGUGCUCGAGAACAUCUUCGGAUGCAAAGGAGGCAGGCUUCGGUGGCGCGAUAGCGCCAACGUCCUCAACCUCCAAUGCAUCCCACCACAUGAUGAUGCCUGAAGAGCCUUGGUAUUUUG [A18U G42A U130A] | -3.41 |
| GACCAAUCUGCCCUCAGUGCUCGAGAACAUCUUCGGAUGCAGAGGAGGCAGGCUUCGGUGGCGCGAUAGCGCAAACGUCCUCAACCUCCAAUGCAUCCCACCACAUGAUGAUGCCUGAAGAGCCUUGGUUUUUUG [A18U C73A] | -3.04 |
| GACCAAUCUGCCCUCAGUGCUCGAGAACAUCUUCGGAUGCAGAGGAGGCAGGCUUCGGUGGCGCGAUAGCGCCAACGUCCUCAACCUCCAAUGCAUCCCACCACAUGAUGAUGCUUGAAGAGCCUUGGUUUUUUG [A18U C115U] | -2.09 |
| GACCAAUCUGCCCUCAGUACUCGAGAACAUCUUCGGAUUCAGAGGAGGCAGGCUUCGGUGGCGCGAUAGCGCCAACGUCCUCAACCUCCAAUGCAUCCCACCACAUGAUGAUGCGUGAAGAGCCUUGGUUUUUUG [A18U G19A G39U C115G] | -3 |
| GACCAAUCUGCCCUCAGUGCUCGAGAACAUCUUCGGAUGCAGAGGAGGCAGGCUUCGGUGGCGCGAUAGCGCCAACGUCCUCAACCUCCAAUGCAUCCCACCACAUGAUGAUGCCUGAAGAGUCUUGGUUUUUUG [A18U C123U] | -1.12 |
| GACCAAUCUGCCCUCAGUGCUCGAGAACAUCUUCGGAUGCAGAGGAGGCAGGCUUCGGUGGCGCGAUAGCGCCAACGUCCUCAACCUCCAAUGCAUCCCACCACAUGAUGAUGCCUGAAGAGCUUUGGUUUUUUG [A18U C124U] | -1.01 |
| GACCAAUCUGCCCUCAGUGCUCGAGAACAUCUUCUGAUGCAGAGGAGGCAGGCGUCGGUGGCGCGAUAGCGCCAACGUCCUCAACCUACAAUGCAUCCCACCACAUGAUGAAGCCUGAAGAGCCUUGGUUUUUUG [A18U G35U U54G C88A U112A] | -7.02 |
| GACCAAUCUGCCCUCAGUGCUCGAGAACAUCUUCGGAUGCAGAGGAGGCAGGCUUCGGUGGCGCGAUAGCGCCAACGUACUCAACCUCCAAUACAUCCCACCACAUGAUGAUGCCAGAAGAGCUUUGGUUUUUUG [A18U C79A G93A U116A C124U] | -6.2 |
| GACCAAUCUGCCCUCAGUGCUCGAGAACAUCUUCGGAUGCAGAGGAGGCAGGCUUCGGUGGCGCGAUAGCGCCAACGUCCUCAACCUCUAAUGCAUCCCACCACAUGAUGAUGCCUGAAGAGCCUUGGUUUUUUG [A18U C89U] | -1.53 |
| GACCAAUCUGCCCUCAGUGCUCGAGAACAUCUUCGAAUGCAGAGGAGGCAGGCUUCGGUGGCGCGAUAGCGCCAACGUCCUCAACCUCCAAUGCAUCCCACCACAUGAUGAUGCCUGAAGAGCCUUGGUUUUUUG [A18U G36A] | -3.63 |
| GACCAAUCUGCCCUCAGUGCUCGAGAACAUCUUCGUAUGCAGAGGAGGCAGGCUUCGGUGGCGCGAUAGCGCCAACGUCCUCAACCUCCAAUGCAUCCCACCACAUGAUGAUGCCUGAAGAGCCUUGGUUUUUUG [A18U G36U] | -3.48 |
| GACCAAUCUGCCCUCAGUGCUCGAGAACAUCUUCGGAUGCAGAGGAGGCAGGCUUCGGUGGCGCGAUAGCGCCAACGUCCUCAACCUCCAAUGUAUCCCAACACAUGAUAAUGCCUGAAGAGCCUUGGUUUUUUG [A18U C94U C101A G110A] | -6.65 |
